# Key:
# [1] = molecular target: T1, receptor for HCG in plasma membranes from bovine corpora lutea (Bos taurus, UniProt Q28005); assay: Radioreceptorassay of HCG: competition with 125I-HCG for plasma membrane receptor; type: binding
# T1 construct: 100 g. of tissue from approximately 25 large corpora lutea; from tissue; host or cells: bovine corpora lutea of early pregnancy (slaughterhouse), plasma membrane fraction from zonal sucrose gradient
# Procedure: All procedures in the preparation of plasma membranes were carried out in an ice bath or at 4° C. Fresh bovine ovaries from early pregnancy (first trimester: fetus length from crown to rump up to 22 cm.) were obtained from the slaughter house and stored in liquid nitrogen until processed. In a typical experiment, 100 g. of tissue from approximately 25 large corpora lutea were cut into small pieces with a sharp steel blade and ground in 500 ml. of 10 mM. Tris-HCl buffer of pH. 7.8 containing one mM. of MgCl2, one MM. dithiothreitol, 10,000I.U. of Trasylol (FBA Pharmaceuticals) per liter and 0.25 M. sucrose. The homogenate was filtered through two layers of cheese cloth and the larger particles were reprocessed in 500 ml. of the buffer. […] The homogenate was centifuged at 650 xg. for 20 minutes in a Sorvall refrigerated centrifuge (RC B, Rotor GSA) to remove intact cells, cell debris and nuclei. The 650 × g. supernatant was again centrifuged at 13,000 g. for 20 minutes in the same centrifuge. […]
# In Table I, the incubation was performed for 30 minutes at 37° C. in a Dunaboff water bath shaker. […] The supernates were aspirated and the pellets were counted in a Packard Autogamma counter with a 51% efficiency for I^125. The standard curves and the hormonal concentration in the plasma samples were calculated by a time sharing IBM computer using logit-log transformations.
# [2] = molecular target: T2, PRL receptor sites in ovarian homogenates (Bos taurus, UniProt Q28172); assay: Specificity of 125I-hPRL binding: displacement by unlabeled hormones; set-up: species or system bovine
# T2 construct: from tissue; host or cells: ovarian homogenate (bovine, from the preparation section)
# T2 sequence (Q28172 25-581): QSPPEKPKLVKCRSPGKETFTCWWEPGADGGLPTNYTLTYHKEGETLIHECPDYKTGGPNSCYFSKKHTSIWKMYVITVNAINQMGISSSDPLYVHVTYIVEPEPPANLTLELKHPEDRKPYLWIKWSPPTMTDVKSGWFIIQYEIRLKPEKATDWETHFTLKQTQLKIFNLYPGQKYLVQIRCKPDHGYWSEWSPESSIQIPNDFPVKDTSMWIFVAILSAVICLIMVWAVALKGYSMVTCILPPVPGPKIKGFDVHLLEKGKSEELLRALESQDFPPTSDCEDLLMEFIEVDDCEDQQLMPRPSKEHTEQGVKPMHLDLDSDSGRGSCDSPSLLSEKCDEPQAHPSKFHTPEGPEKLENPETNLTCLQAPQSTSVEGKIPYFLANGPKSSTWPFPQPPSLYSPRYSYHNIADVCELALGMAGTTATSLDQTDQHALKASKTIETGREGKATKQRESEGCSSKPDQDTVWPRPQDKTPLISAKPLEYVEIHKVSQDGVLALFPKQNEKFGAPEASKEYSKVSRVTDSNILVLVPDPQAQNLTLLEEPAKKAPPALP
# Procedure: A reaction mixture containing 100 ul of incubation buffer containing 10 IU Trasylol (FBA Pharmaceuticals, New York, New York), 50 ul of receptor preparation equivalent to 1-300 ug of protein and 100 ul of ^125 I-hPRL (SA; 50-70 uCi/ug) were incubated at 37° C. for 2 hours in the absence and in the presence of 1 ug of unlabeled bovine PRL. At the end of incubation, 1 ml of ice cold buffer was added to all tubes and tubes were centrifuged at 5,000 rpm for 20 minutes. The supernatants were aspirated. The pellets containing receptor bound hormones were counted in an Automamma counter with a 51% efficiency for ^125 I (Packard Instrument Company, Downers Grove, Illinois). Specific binding was calculated as the difference of binding in the tubes with and without unlabeled PRL.
# T1 sequence (Q28005 27-701): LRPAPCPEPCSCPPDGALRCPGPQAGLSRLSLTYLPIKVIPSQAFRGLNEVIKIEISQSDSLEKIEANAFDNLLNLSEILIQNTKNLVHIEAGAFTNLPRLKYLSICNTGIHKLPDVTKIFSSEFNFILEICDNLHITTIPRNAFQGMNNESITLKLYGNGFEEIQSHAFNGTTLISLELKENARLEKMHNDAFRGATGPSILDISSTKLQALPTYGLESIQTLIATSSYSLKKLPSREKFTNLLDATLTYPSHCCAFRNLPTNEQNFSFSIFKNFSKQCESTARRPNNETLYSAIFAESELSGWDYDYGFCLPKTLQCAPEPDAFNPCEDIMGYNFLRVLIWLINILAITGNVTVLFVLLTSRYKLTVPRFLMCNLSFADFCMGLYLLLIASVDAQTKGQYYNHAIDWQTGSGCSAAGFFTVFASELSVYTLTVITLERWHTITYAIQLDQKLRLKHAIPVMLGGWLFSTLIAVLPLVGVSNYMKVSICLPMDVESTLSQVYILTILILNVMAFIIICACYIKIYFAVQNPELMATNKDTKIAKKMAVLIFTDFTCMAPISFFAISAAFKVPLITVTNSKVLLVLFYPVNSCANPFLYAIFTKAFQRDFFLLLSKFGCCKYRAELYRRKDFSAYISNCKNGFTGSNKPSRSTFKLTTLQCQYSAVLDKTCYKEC
"logit-log line of radioreceptorassay response compared with HCG ([1]; same system, different concentrations)","cross-reaction in the radioreceptorassay of HCG (FIG. 2) ([1]; FIG. 2 legends: TSH, HGH, PRL are plasma from hypothyroid, acromegalic, postpartum lactation subjects)",potency in displacing receptor-bound 125I-hPRL relative to hPRL [2],displacement of 125I-hPRL bound to receptor protein ([2]; various concentrations),Substance
parallel to the line for HCG,–,–,–,LH from rat: sample of luteinizing hormone from rat
–,no cross-reaction,0.5-1 % of hPRL,capable of displacing,human growth hormone [hGH]
